Results on 1 molecule are retold here after patent publication US20100239568A1, “DIAGNOSTICS AND TREATMENTS FOR TUMORS” (GENENTECH, INC., priority 2006, published 2010).

For experiment [1], the system named is monocytes. In words: Monocyte migration assay. In kind it is cell-based, human. Conditions: found in high salt fraction of EL4 and L1210 tumor lysates. The procedure: Monocyte migration assay: Step 1: isolation of monocyte from human PBMC. Blood was diluted with PBS 1:1 (v/v). The diluted blood was slowly added on top of Ficoll and centrifuged at 3000 rpm for 15 min at room temperature (RT) without break. Plasma was removed and white cells were collected (9˜5 ml interphase). Cells were washed in migration buffer containing PBS with 0.5% BSA (low in endotoxin), spun at 1850 rpm (9˜800 g) for 10 min at RT and cells were counted. Step 2: Magnetic labeling of cells. Cell pellet was resuspended in MACS buffer containing PBS with 0.5% BSA (low in endotoxin) and 2 mM EDTA, 30 μl per 10^7 cells. FcR blocking reagent and Biotin-antibody cocktails were added and mixed well. The cells were then incubated for 10 min at 4° C. after which 30 μl more MACS buffer per 10^7 cells was added and anti-biotin Microbeads was added. This was mixed well and incubated for 10 min at 4° C. Cells were washed with MACS buffer by adding 10-20 fold more of the labeling volume, spun at 300g (1250 rpm) for 10 min. Cells were resuspended in up to 10^8 cells in 2 ml buffer. Step 3: Magnetic separation with LS columns. LS column (Miltenyi Biotec) was placed in the magnetic field holder. Column was rinsed with MACS buffer. Cell suspension was applied to the column. Unlabelled flow was collected, which represents enriched monocyte fraction. […]

The subject of experiment [2] is HUVEC cells. Description: HUVEC proliferation assay. It counts as cell-based, human. To be noted: found in high salt fraction of EL4 and L1210 tumor lysates. The procedure: HUVEC proliferation assay: HUVEC at passage less than 8 were used in the study. Day 1: 3000 cells/well (96-well plate) were plated onto 1% gelatin-coated plate in the assay media (DMEM:F12 50:50) with 1.5% FBS. Day 2: Media was changed and cells were treated with various growth factors or conditioned media. Day 3: ^3H-thymidine was added at 0.5 μCi/well. Day 4: 250 mM EDTA/well was added to stop the reaction in the morning. Cells were harvested onto 96-well filter plate and washed with water 3 times. ^3H samples were counted with TOPCOUNT liquid scintillation counter.

B1: bFGF: growth factor found in the high salt fraction of resistant tumor lysates (protein, UniProt P15655 10-154, looked up)
Fibroblast growth factor 2: PALPEDGGAAFPPGHFKDPKRLYCKNGGFFLRIHPDGRVDGVREKSDPHVKLQLQAEERGVVSIKGVCANRYLAMKEDGRLLASKCVTEECFFFERLESNNYNTYRSRKYSSWYVALKRTGQYKLGSKTGPGQKAILFLPMSAKS
Consider B1, for which, in experiment [1], the chemotactic activity result is “not chemotactic activity”. For the same molecule, the “proliferation of HUVEC cells” value in experiment [2] was “contribute to the proliferation of HUVEC cells”.
